From US20240116985A1 (published 2024)
Where two headings read alike, the source gives them in different places. Each block holds one binder with its values, some of them ahead of it. Starred links: 1 amine or outer side, 2 acyl side, 3 side chain; linkers in the order of their positions; H or OH if unused. Positions of bridges follow the written chain, without caps; N, C: chain ends. Non-standard residues stand in square brackets, D forms with d. Primed or numbered codes have the meaning given here. *: point of attachment. PyrS2(3) = (S)-3-amino-1-((pent-4-en-1-yloxy)carbonyl)pyrrolidine-3-carboxylic acid, stapling residue, C=CCCCOC(=O)N1CC[C@@](N[*:1])(C(=O)[*:2])C1; PyrS2″ = (S)-3-amino-1-((pent-4-en-1-yloxy)carbonyl)pyrrolidine-3-carboxylic acid (stapling residue), C=CCCCOC(=O)N1CC[C@@](N[*:1])(C(=O)[*:2])C1; PyrS3″ = (S)-3-amino-1-((hex-5-en-1-yloxy)carbonyl)pyrrolidine-3-carboxylic acid (stapling residue), C=CCCCCOC(=O)N1CC[C@@](N[*:1])(C(=O)[*:2])C1; B5(4) = 2,2-bis(4-pentenyl)glycine = 2-amino-2-(pent-4-en-1-yl)hept-6-enoic acid (stitching residue), C=CCCCC(CCCC=C)(N[*:1])C(=O)[*:2]; B5(5) = 2,2-bis(4-pentenyl)glycine, 2-amino-2-(pent-4-en-1-yl)hept-6-enoic acid (stitching residue), C=CCCCC(CCCC=C)(N[*:1])C(=O)[*:2]; B5(21) = 2-amino-2-(pent-4-en-1-yl)hept-6-enoic acid, bis(4-pentenyl)glycine (stitching residue), C=CCCCC(CCCC=C)(N[*:1])C(=O)[*:2]; TfeGA = (S)-2-amino-3-((carboxymethyl)(2,2,2-trifluoroethyl)amino)propanoic acid, O=C([C@H](CN(CC(=O)[*:3])CC(F)(F)F)N[*:1])[*:2]; PyrS2 = (S)-3-amino-1-((pent-4-en-1-yloxy)carbonyl)pyrrolidine-3-carboxylic acid, C=CCCCOC(=O)N1CC[C@@](N[*:1])(C(=O)[*:2])C1; PyrS3 = (S)-3-amino-1-((hex-5-en-1-yloxy)carbonyl)pyrrolidine-3-carboxylic acid, C=CCCCCOC(=O)N1CC[C@@](N[*:1])(C(=O)[*:2])C1; B5(13) = 2-amino-2-(pent-4-en-1-yl)hept-6-enoic acid (two alkene chains), C=CCCCC(CCCC=C)(N[*:1])C(=O)[*:2]; B5(3) = 2,2-bis(4-pentenyl)glycine (stitching residue), C=CCCCC(CCCC=C)(N[*:1])C(=O)[*:2]; B5″ = 2,2-bis(4-pentenyl)glycine, stitching residue, C=CCCCC(CCCC=C)(N[*:1])C(=O)[*:2]; mPEG2 = N-terminal 3-(2-methoxyethoxy)propanoic acid, COCCOCCC(=O)*; Phe(2-Cl) = N[C@@H](Cc1ccccc1Cl)C(=O)O; Phe(2-OMe) = COc1ccccc1C[C@H](N)C(=O)O; Phe(3-F) = N[C@@H](Cc1cccc(F)c1)C(=O)O; Bta = N[C@@H](Cc1csc2ccccc12)C(=O)O; αAllylPro = C=CC[C@@]1(C(=O)O)CCCN1; tBuAla = CC(C)(C)C[C@H](N)C(=O)O; 3Thi = N[C@@H](Cc1ccsc1)C(=O)O; S8 = C=CCCCCCC[C@](C)(N)C(=O)O; hLeu = CC(C)CC[C@H](N)C(=O)O; Ms = CS(=O)(=O)*

Key:
[1] = biological target: T1, B-cat-Halo (UniProt P35222 1-781); assay: cell-based or functional assay
T1 sequence (looked up): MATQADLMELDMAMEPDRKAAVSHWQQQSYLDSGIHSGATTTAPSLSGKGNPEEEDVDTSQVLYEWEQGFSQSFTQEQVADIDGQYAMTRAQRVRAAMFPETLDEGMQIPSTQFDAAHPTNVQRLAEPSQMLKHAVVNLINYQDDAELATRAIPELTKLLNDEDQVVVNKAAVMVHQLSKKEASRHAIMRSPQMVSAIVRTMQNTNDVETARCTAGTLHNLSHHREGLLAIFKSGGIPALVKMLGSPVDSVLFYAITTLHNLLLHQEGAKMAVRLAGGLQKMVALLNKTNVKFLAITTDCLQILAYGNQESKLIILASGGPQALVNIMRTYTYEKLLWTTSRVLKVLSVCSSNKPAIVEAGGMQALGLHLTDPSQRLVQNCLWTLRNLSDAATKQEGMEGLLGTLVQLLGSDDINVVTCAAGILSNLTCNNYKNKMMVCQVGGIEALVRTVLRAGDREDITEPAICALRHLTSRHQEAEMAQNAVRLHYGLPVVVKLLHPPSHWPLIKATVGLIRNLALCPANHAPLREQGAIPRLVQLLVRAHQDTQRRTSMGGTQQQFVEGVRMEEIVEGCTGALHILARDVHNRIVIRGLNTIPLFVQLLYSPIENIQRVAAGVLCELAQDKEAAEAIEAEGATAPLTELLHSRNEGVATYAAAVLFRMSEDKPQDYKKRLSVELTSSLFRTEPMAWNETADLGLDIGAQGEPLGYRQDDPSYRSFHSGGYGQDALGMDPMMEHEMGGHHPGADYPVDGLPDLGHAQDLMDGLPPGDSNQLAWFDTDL

[2] = biological target: T2, full-length beta-Catenin (Uniprot ID P35222) (Homo sapiens (Human), UniProt P35222 1-781); assay: fluorescence polarization competition: full-length beta-catenin + 5FAM-TCF4(10-53) probe, peptide titrated
T2 construct: The assay protocol says full-length beta-Catenin (Uniprot ID P35222); tags are not described; also called bCat; B-Catenin
T2 sequence: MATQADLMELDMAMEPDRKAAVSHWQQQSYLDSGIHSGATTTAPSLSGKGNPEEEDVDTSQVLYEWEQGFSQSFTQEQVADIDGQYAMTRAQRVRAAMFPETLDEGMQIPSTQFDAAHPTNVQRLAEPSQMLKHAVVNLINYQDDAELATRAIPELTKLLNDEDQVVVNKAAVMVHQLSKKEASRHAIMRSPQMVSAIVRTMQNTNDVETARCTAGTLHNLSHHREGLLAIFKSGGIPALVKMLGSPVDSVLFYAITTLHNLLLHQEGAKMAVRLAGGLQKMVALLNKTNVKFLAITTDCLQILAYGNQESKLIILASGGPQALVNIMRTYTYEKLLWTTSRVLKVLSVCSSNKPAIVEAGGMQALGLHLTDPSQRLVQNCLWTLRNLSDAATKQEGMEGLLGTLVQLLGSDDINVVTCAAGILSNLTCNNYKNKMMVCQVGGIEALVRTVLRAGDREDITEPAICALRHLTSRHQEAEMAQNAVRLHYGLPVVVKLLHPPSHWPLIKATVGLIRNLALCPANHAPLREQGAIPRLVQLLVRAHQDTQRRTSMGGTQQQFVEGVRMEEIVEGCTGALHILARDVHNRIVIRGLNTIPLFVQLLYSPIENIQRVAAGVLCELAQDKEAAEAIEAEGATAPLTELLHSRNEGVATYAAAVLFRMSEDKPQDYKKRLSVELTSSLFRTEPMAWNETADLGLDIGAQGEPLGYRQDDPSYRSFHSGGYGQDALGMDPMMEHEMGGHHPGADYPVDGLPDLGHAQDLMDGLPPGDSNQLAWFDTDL
Procedure: The plate was incubated protected from light for 60 minutes at 20° C. prior to read. Reads were performed on a CLARIOstar plate reader (BMG Labtech) in duplicate, and data were fitted to a 1:1 binding model with hill slope using an in-house script. All provided concentrations are final concentrations.

[3] = biological target: T3, B-cat-Halo (UniProt P35222 1-781); assay: cell-based or functional assay; remark: listed apart in the source
T3 sequence (looked up): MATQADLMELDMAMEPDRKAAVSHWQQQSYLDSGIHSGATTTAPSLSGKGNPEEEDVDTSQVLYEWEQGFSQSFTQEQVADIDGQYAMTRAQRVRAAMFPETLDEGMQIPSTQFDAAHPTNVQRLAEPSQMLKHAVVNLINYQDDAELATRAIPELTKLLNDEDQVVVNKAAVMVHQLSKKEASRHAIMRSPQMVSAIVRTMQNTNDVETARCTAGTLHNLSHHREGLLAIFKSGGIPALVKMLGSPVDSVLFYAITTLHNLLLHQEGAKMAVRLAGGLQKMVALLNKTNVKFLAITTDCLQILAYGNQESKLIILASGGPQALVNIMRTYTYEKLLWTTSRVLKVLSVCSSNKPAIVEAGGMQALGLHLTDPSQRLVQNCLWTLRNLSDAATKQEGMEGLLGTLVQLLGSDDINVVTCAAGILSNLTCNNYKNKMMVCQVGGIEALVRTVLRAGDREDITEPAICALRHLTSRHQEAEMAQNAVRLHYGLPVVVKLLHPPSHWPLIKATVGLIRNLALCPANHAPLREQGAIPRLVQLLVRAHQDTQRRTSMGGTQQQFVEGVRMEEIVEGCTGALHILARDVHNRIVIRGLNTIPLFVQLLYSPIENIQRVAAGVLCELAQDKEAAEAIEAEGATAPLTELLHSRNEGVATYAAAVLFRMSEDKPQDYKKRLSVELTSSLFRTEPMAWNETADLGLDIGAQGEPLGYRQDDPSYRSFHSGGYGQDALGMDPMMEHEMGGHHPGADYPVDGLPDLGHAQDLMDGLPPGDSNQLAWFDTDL

Binder: Ac-[αAllylPro]D[tBuAla][B5(13)]DDAAFN[PyrS3][3Thi][Bta]H-NH2 (staple 1-4, 4-11) [I-776]
- NanoBRET Abs IC50 [1]: 45.7 µM

B1: I-462 (peptide)
peptide: Ac-[αAllylPro]DA[B5(21)]DEAAFN[PyrS2″]F[Bta]Q-NH2
modifications: staple 1-4, 4-11
notes: Stapled (stitched) peptide with non-natural residues
- EC50 [2]: 0.028 µM

B2: I-463 (peptide)
peptide: Ac-[αAllylPro]DA[B5(21)]DEAAFN[PyrS3″]F[Bta]Q-NH2
modifications: staple 1-4, 4-11; also: earlier-eluting HPLC staple isomer
notes: Staple isomer composition: earlier-eluting HPLC peak
- EC50 [2]: 0.092 µM

B3: I-464 (peptide)
peptide: Ac-[αAllylPro]DA[B5(21)]DEAAFN[PyrS3″]F[Bta]Q-NH2
modifications: staple 1-4, 4-11; not fully specified; printed as Ac-PL3-Asp-Ala-B5-Asp-Glu-Ala-Ala-Phe-Asn-PyrS3-Phe-BztA-Gln-NH2
notes: Staple isomer composition: later-eluting HPLC peak
- EC50 [2]: 0.057 µM

Binder: Ac-[αAllylPro]D[tBuAla][B5(13)]DDAAFN[PyrS2][Phe(2-Cl)][Bta]Q-NH2 (staple 1-4, 4-11) [I-783]
- NanoBRET Abs IC50 [1]: 6.2 µM

Binder: Ac-[αAllylPro]D[tBuAla][B5(13)]DDAAFN[PyrS2]F[Bta]H-NH2 (staple 1-4, 4-11) [I-777]
- NanoBRET Abs IC50 [1]: 19.8 µM

Binder: Ac-[αAllylPro]D[tBuAla][B5(13)]DDAAFN[PyrS2][Phe(2-OMe)][Bta]Q-NH2 (staple 1-4, 4-11) [I-780]
- NanoBRET Abs IC50 [1]: 20.7 µM

Binder: Ac-[αAllylPro]D[tBuAla][B5(3)]DDAAFN[PyrS2][Phe(2-Cl)][Bta]H-NH2 (staple 1-4, 4-11) [I-784]
- NanoBRET Abs IC50 [1]: 14.5 µM

Binder: Ac-[αAllylPro]D[tBuAla][B5(13)]DDAAFN[PyrS2][Phe(2-OMe)][Bta]H-NH2 (staple 1-4, 4-11) [I-781]
- NanoBRET Abs IC50 [1]: 31 µM

Binder: Ac-[αAllylPro]N[tBuAla][B5(4)]DDAAFL[PyrS2″][3Thi][Bta]Q-NH2 (staple 1-4, 4-11) [I-1221]
- NanoBRET Abs IC50 [3]: 23.4 µM

Binder: Ac-[αAllylPro]D[tBuAla][B5″]NDAAFL[PyrS2(3)][3Thi][Bta]Q-NH2 (staple 1-4, 4-11) [I-1207]
- NanoBRET Abs IC50 [3]: 7.5 µM

Binder: Ms-[αAllylPro]D[tBuAla][B5″]D[TfeGA]AAFN[PyrS2(3)][3Thi][Bta]Q-NH2 (staple 1-4, 4-11; not fully specified) [I-1219]
- NanoBRET Abs IC50 [3]: > 20 µM

Now from value to binder:

- NanoBRET Abs IC50 [1]: 30.7 µM
Binder: Ac-[αAllylPro]D[hLeu][B5(3)]DDAAFN[PyrS2][3Thi][Bta]Q-NH2 (staple 1-4, 4-11) [I-787]

- NanoBRET Abs IC50 [1]: 21.6 µM
Binder: Ac-[αAllylPro]D[tBuAla][B5(3)]DDAAFN[PyrS2][3Thi][Bta]-NH2 (staple 1-4, 4-11) [I-785]

- NanoBRET Abs IC50 [3]: > 20 µM
Binder: mPEG2-[αAllylPro]D[tBuAla][B5(5)]DDAAFN[PyrS2″][Phe(2-Cl)][Bta][dT]-NH2 (staple 1-4, 4-11) [I-1253]

- EC50 [2]: 0.125 µM
B4: I-454 (peptide)
peptide: Ac-[αAllylPro]DA[B5(21)]DEAA[Phe(3-F)]N[S8]F[Bta]Q-NH2
modifications: staple 1-4, 4-11
notes: as for B1

- NanoBRET Abs IC50 [3]: 29.7 µM
Binder: Ac-[αAllylPro]D[tBuAla][B5(4)]DDAAFL[PyrS2″][Phe(2-Cl)][Bta]Q-NHEt (staple 1-4, 4-11) [I-1248]
